Here are results for 2 molecules from patent US20070286806A1, “Methods and Compositions for Modulating a Steroid Receptor” (Mount Sinai Hospital, priority 2004, published 2007).

Test [1] has as its target myometrial progesterone receptors. Conditions: cited from earlier work.
The target of test [2] is T1, PR DNA binding domain / PRE (Homo sapiens, UniProt P06401).
T1 construct: PR 556-650 was also inserted downstream of T7 promoter of pcDNA3; made in house; host or cells: rabbit reticulocyte lysate (TNT, Promega); GST-PSF from E. coli
T1 sequence (P06401 1-933): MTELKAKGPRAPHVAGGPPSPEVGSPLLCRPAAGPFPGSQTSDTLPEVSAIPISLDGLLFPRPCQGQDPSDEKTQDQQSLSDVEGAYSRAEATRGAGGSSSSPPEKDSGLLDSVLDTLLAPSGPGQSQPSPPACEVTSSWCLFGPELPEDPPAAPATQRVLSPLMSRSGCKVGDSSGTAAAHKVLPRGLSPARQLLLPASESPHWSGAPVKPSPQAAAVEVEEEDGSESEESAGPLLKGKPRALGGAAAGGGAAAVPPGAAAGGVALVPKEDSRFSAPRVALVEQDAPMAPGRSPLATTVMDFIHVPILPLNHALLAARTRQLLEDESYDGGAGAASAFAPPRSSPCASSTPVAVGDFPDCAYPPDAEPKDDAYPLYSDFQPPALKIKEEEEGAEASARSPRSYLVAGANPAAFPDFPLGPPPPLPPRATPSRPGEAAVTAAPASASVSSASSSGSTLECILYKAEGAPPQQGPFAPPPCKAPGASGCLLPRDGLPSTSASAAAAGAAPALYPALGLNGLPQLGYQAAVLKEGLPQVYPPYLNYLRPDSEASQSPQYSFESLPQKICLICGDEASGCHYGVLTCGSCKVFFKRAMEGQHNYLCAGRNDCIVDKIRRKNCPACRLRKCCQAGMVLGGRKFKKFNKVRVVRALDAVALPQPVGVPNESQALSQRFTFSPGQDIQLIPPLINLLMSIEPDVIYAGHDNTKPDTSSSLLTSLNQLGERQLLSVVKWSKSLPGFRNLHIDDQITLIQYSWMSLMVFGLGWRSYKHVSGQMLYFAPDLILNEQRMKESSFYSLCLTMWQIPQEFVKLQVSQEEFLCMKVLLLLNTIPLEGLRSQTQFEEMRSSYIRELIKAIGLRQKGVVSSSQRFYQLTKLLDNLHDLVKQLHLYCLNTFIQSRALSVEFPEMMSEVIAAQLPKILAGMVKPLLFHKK
Nature of the test: Electrophoretic Mobility Shift Assay of PR binding to PRE. The conditions noted are these: nuclear extract of 293T cells transfected with Flag-PRB, increasing doses. The protocol: (§1) FIG. 8. PSF interferes with binding of PR DNA binding domain to PRE. (A) Electrophoretic mobility shift assay was performed with ^32P-labeled PRE incubated with in vitro translated PRDBD (1, 2, 5μl in lane 3 to 5 and 2 μl in lane 6 to 11) and increasing amount of bacterially expressed GST (lane 6 to 8) or GST PSF (lane 9 to 11). TNT lysate (lane 2) was used as negative control. (B) PR-Nuclear extraction (1 and 2 μg) as described in the method was incubated with PRE oligo in a dose dependent manner (lane 2 and 3). Anti-PR antiserum (AB-52) was added to the incubation mixture (lane 4). Addition of increasing dose (1 and 2 μl) of GST or GST-PSF in the same reaction as lane 3 was shown in lane 6, 7 and 9, 10. In the control experiments (lane 5 and 8), GST or GST-PSF was incubated with PRE without adding PR-nuclear extract. All reactions contain 10 nM progesterone.
(§2) For immunoprecipitation of the endogenous PR and PSF, T47D cells cultured in 150 mm dishes were lysed in 800 μl NETN buffer containing 150 mM NaCl plus protease inhibitor cocktail. […] Gels were treated with Enhancer (NEN, Boston, US) dried and analyzed by autoradiography. • Cell culture and transient transfection: SHM cells and 293T cells were maintained in DMEM plus 5% FCS (Sigma) as described before (22). […] Luciferase activity was determined by using the luciferin reagent (Promega) according to manufacture's protocol. […]
A general note: In EMSA bound probe runs differently from free probe, usually more slowly.

Test [3] deals with T2, PR DNA binding domain / PRE (Homo sapiens, UniProt P06401).
T2 construct: PR 556-650 was also inserted downstream of T7 promoter of pcDNA3; made in house; host or cells: rabbit reticulocyte lysate (TNT, Promega); GST-PSF from E. coli
T2 sequence (P06401 556-650): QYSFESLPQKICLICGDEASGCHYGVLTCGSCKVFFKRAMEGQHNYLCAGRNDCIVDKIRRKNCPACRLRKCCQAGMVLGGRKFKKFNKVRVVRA
The description is as above. Conditions: in vitro translated PRDBD, 32P-labeled PRE. The protocol:
as §1, §2

One may read the Kd as the constant that tells how readily two partners part at equilibrium.

As to `CC(=O)[C@H]1CC[C@H]2[C@@H]3CCC4=CC(=O)CC[C@]4(C)[C@H]3CC[C@]12C` [progesterone], the Kd in test [1] was 1 nM.

B1: GST-PSF: bacterially expressed GST-PSF fusion protein (protein)
chain: MSRDRFRSRGGGGGGFHRRGGGGGRGGLHDFRSPPPGMGLNQNRGPMGPGPGQSGPKPPIPPPPPHQQQQQPPPQQPPPQQPPPHQPPPHPQPHQQQQPPPPPQDSSKPVVAQGPGPAPGVGSAPPASSSAPPATPPTSGAPPGSGPGPTPTPPPAVTSAPPGAPPPTPPSSGVPTTPPQAGGPPPPPAAVPGPGPGPKQGPGPGGPKGGKMPGGPKPGGGPGLSTPGGHPKPPHRGGGEPRGGRQHHPPYHQQHHQGPPPGGPGGRSEEKISDSEGFKANLSLLRRPGEKTYTQRCRLFVGNLPADITEDEFKRLFAKYGEPGEVFINKGKGFGFIKLESRALAEIAKAELDDTPMRGRQLRVRFATHAAALSVRNLSPYVSNELLEEAFSQFGPIERAVVIVDDRGRSTGKGIVEFASKPAARKAFERCSEGVFLLTTTPRPVIVEPLEQLDDEDGLPEKLAQKNPMYQKERETPPRFAQHGTFEYEYSQRWKSLDEMEKQQREQVEKNMKDAKDKLESEMEDAYHEHQANLLRQDLMRRQEELRRMEELHNQEMQKRKEMQLRQEEERRRREEEMMIRQREMEEQMRRQREESYSRMGYMDPRERDMRMGGGGAMNMGDPYGSGGQKFPPLGGGGGIGYEANPGVPPATMSGSMMGSDMRTERFGQGGAGPVGGQGPRGMGPGTPAGYGRGREEYEGPNKKPRF
modifications: left off: a dimerising Fc or GST
notes: bacterially expressed GST-PSF fusion protein
Take B1: in test [2], the “association of full-length PR to PRE” value is “decrease of association of PR to PRE”. The “association of PRDBD to PRE” value in test [3] is on record as “decreased association of PRDBD to PRE”.
